# Reference: a protein production outcome set (Wang et al. 2014)
# Test: label from the status in PepcDB records
# 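Also: failed if final PepcDB status was selected cloned or expressed and not failed if soluble or beyond.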
row,Sequence,protein production
1,MIRNLYNKIKNCKLKIAAIILLIFLIVTGYIYYSRYFYVLRSPQRVKEFILSYGKFGFFAFFVMQMLQVVAFFIPGEIIQIAGGYIFGTFWGTVISLLGITAGSAVAFYLSNKLGRPFVKKISGKQNISFFEKLIKNGEIKYVITLIYLVPGLPKDILAYVCGITDLSLKDFIIYSTIGRFPGIFISAYFGNTITHGNIKMMVIIAVISVVLFGLGVFKGKYLLTKISSIRSKKQK,failed
2,MIRNVLKLLALLADEIVIVALVIIFLRRVSARLAVIVGGALILFNLFLVKLLWGTLKKKAEVGAEALIGEKAVVVEDLNPVGLVKVKNELWTAECISGTARRGEKVRIVQVKGAKLLVEKDDNAGKFL,failed
3,MIRVTFLPDQVSVEATAGEAWLSVAARAGVEIPTGCRMGSCGACTLELEDGQEIRACISTIAGDRDPAPLEDCPHITAYVFRDPTW,failed
4,MISASWKSAGKTTVSLGLLRLLAENGVPVVSFKKGPDYIDPMWHRVASSGECYNLDTWMMGEAACRDTFIRNCARRPGSIALIEGNHGLHDGMDMAGADSSAGLAALLDAPVLLVIDSRRMNRGVAAQVLGLQAMPPKVRIAGVILNHVTSSRQESKQRAAIETFCNVPVLGAIPADSSLLLPERHLGLVTVGEASDAEAFIRVAAQQVERHCDFAAIRKLFEEASPLSHSEPREVFSPKKEATVKIGVFRDAAFCFYYPDNLDALRDAGAELVFIDTFKTTALPEIDGLYLGGGFPESFFAELSANTSLLRDMRGRIEAGIPAWAECGGLIYLCRSATWEGRQWPLASVLPIDIAYQRKPAGCGYLELESRAGSGWFPVGERVRAHEFHYSKPVAGNVDLACQFDVARGFGLTGREDGLLYRNLFASYAHFHAAANPGWAERFVGLALKFKEQGRLERD,failed
5,MISHFGAPLIRYDPALQGHAVPQLDMKTFTRRQHRPRPLILAVGLGLGIALTAPLAAAQNAPSSQPWRDTALTADQRADRLLAQMTEDEKFQMLRSYLGLGTDKIPKPAGALGSAGYVPGIARLGIPAQQLADAGVGVTNPGGIRKGDYATAMPSVLSTASSWNRQLAYAGGKTMGRESWQQGFNVLLAGSVNLQRDPRNGRNFEYAGEDPLLAGTMVGESIRGVQSEHVLSTMKHFALNDMETRRNFHSAQIGEQAMHESDLLAFEIALKIGDPASVMCSYNKINGVYGCEHDYLLNQVLKQEWKYPGYVMSDWGGVHSGSKAALAGLDQESAGEVFDVAVFFDAPLRMAVSAGVVPRARFDDMVKRILRSLFAHGAFDYPTQRQPIDGKAGLLAAQHVAEAGSVLLRNEQAMLPVSQDVRRIAVIGGYADKGVMSGGGSSRVDVTINGGNAVPGITPTTWPGPVIIHPSSPLQALRAALPNAQIDYVDGKDRAAAARAAKAADVAIVFATQWATESVDLPDMRLPDNQDALIEAVAKANPKTTVVLETNGPVRMPWAERVPAVLQAWYPGIGGGEAIANLLTGTVNPSGHLPVTWPVDESQLPRPSIPGLGFKPAKPGEDTIDYAIEGANVGYKWFAAHKLTPRYPFGHGLSYTQFRMDGLRVEANGSQLTASFEVENIGQREGAAVPQLYVTLPDGHATPLRLIGWQKLTLKPGEKRSVQVVAEPKTLADFDAQARRWTIAAGTYRVQLARSASEPVQSAAVTLQAAQLP,failed
6,MISILRRGLLVLLAALPLLANAASTPSAHDLVQDTTTRLLADLAANKEKYKQSPNDFYNALNSIVGPVVDADGISRSIMTVKYSRKATPEQMVRFQENFKRSLMQFYGNALLEYNNQGITVSPAKDESGTRTSVDMQVKGNNGAIYPVSYTLEKINDEWKVRNVIINGINIGKLFRDQFADAMQRNGNNLDKTIDGWAGEVAKAKEVTEDAAQKAAQLEHHHHHH,not failed
7,MISMPKEKVVIIIPTYNEEDNISNTIDLILKETYSLADYQVDILVFDSHSTDSTAHIVRELTYTSQRIHFAQEPQKTGLGSAYLQAMRIAIDELNADVVFEFDADGSHQPCYIAPMLELLKQHDVVVGSRYISGGRIPSNWAFHRKLLSVGGNWVARMLLTGKYKDLTSGLRAIRTNLLKKLLPSNFLSNNYAYKLELYWLLHKAKARIVEFPIQFIDREKGKSKLPKNSMIDTLRVLFTLRFRELRQYLTMCCVGSIGALIQFSLYNWLRSSNHSALVSSQVAISAAIISNFIFHHSITFKQKTDFRITKTTFSRFTQFIIYSTFMVYFQSLWVHIFVHSFGQGVLKENIIVASGLGIGSIINYLFYSNIIWSSKGTHSLNSNSSKETQI,failed
8,MISNEHINTQNFWYQLVEKMAIGVLVINNEGQILYANDYAVQLFGAIRTELIGTNFLYPMAADETQEVEILKSSNEILTAHMTVRKSIWENRQVWIISLFDIT,failed
9,MISSYGDVDMELRDEDLILEEVRDYLTAYLRNIHQEDIILDNERVVVDLNQLYNYGLMEFVEFLINNPQKGIDFIKECYNDAYYTLRNEYPTNVIIAVKNLPKIFKTTRKGKIFTIEDIRSKTLGKLVEFEGIIVMASKIRPMLKKAYYICPKCGREVVREIDILNTDSEKAVCECGAELNLIEHKSIYTDFQEIKVQQPLDLMENPEEPPKYITVFLENSPGIYAGRVKITGIPIKVKKSKKLPIYDIHVKALHCEVLDGEVKIKLTNSDIENIKKIAKRKDVVNILADRLIPEIKGHSAIKKAVLLQQIKGVKKPGKRADIHILLITDPGIGKTVILRKIAEIPGNLYGSVTTATGVGLTAAVVREKTEIGEDTWVIKPGLLVKAHKGTACIDELTVNKELQSYVLEAMESQTIHISKGGINAKLPAECAILAACNPRWGRFNPEVSVAEQINIPAPLLSRFDLIFPIRDVSDKDKDKDIAEYIVDLHRAYLDEKINREMGLDYLEVDGVKIDKEFIIKYIYYARQKKPIISEKAKELFVNYYVEMRKKHQITARQLEAAIRIAEAHAKAKLKDVVDEEDAKEAINIITECLKEIAYDPETGIFDVDKILGVSKKERDKLTTVYEIIKELSEKSELVEHEDIAEEAKKKGIKEDELENIIKKLIKYGDIDEPKPGRYRLL,failed
10,MISTMYSEETSERSSFPSKRHLEDRTENREEHSKRLRPTSFRDQKVTIPQGWLDCPRFGQHIGLIIPSKVPLSESYNDCVPSGKRYNFKQWLTKIGLVIDLTNTTRYYHPNTELRQNRIEYVKIRCSGRDSVPDNVSVNTFVHEVTQFENHNLSEKYLLVHCTHGHNRTGFMIVHYLMRSRPMMSVTQALKIFSDARPPGIYKPDYIDALYRFYHEVKPGSVICPPTPEWKRSEEAKFDDDDNALSYREVQGNNQEENVQLSNDDVLGDEIPYDQEVSYQNSINHMLNISMQFPGSHPLSLGREALQLLRQRYYYATWKADGTRYMMLLTRDGCYLVNREYRFRRVQMRFPCEYEPSDYKVHHYTLLDGEMVVDTIKEGETQRHVRRYLVYDLVAINGQFVAERPFSERWNILERELIKPRNDEKKVRDHWYRYDKEPFGVRIKAFCLLSAVEKKVFNELIPLLSHESDGLIFQGWDNPYVFGPNKDLLKWKFVETLDFLFDMDKYGRQMLFLQERGRMKLMEGFAVEFRGDGWDNDLASYCGKIVECSWDKEKKVWVSLRIRVDKSKPNGIGTGRSVIKCIEDDLTKEVLLKEIKEIILLPMYVERIENDTKEAARRKHGNRKG,failed
11,MITETQLTAIQTYALQKLAHDHSGHGRDHLQRVNRLARRLAKDEGANLNLTLAAAWLHDVIDDKLMANPAKAHQDLIVQLNAQNVTADDQTAIFAIIDHMSFSKSFNGPQKLSLEGQVVQDADRLDAIGAIGIARALYYSGHVGEKIYDPAIAPREHMTREQYRHQPGTAINHFYEKLFKLAALMNTDTAKALAAHRTAVMHEFVDQFKAEWTADDKALEHHHHHH,not failed
12,MITFEKVTVENENVVKEMFRSHSLSEKQVQYCVKVDDTYIGVIDYRVQGETAILSQLIIHFDYQSYGYGTNTYFTFEMMMKERNVKEIKVLQTELTEPVKSFIESFGFNVEDG,failed
13,MITFRKRVEIEADPAEVFRVISDPWRITEFWKGTRQVIEDGDFYRIRFAFPAWGLMSFHPDAERMTVLTSYLKGPVRGSKVDAVLVSSGKTVLQTEWNVRLSFYLRPFERRIASHFESGADHAINRIKESVEKDKK,failed
14,MITHISPAGSMDLLSQLEVERLKKTASSDLYQLYRNCTLAVLNSGSHTDNSKELLDKHQSFDVNVVRRERGIKLELTDPPEHAFVDGEIIKGIQEHLFSVLRDIVYVNMHLADSQRLNLTNPTHITNLVFGILRNAGALTPGIEPNLVVCWGGHSINGVEYQYTREVGNELGLRELNICTGCGPGAMEGPMKGAAIGHAKQRYTEQRYLGLTEPSIIAA,failed
15,MITIITLLLVVLISAIIVRIGAVALEMTGLSRDVAAFQAQSAFSGVGFTTSESEYVVSHPVRRRIIRILMLLGSAGVTSAIATLVLSFVGTTKEEAGYRMVVLLIGLLALYLFFRSKFIERVMRKAIKKGLSRLAPSLRVIDYSQLLGITRGYSIVQIKVKRRSWLADKTLRDLQLDKEGVLVLGIYRKVNGRRVYLGAPHGSTKVLPGDELILYGPEDVLMSLSKRLKGAKGEKEHVEAMEMAKARRVQEEREAGISV,failed
16,MITLKQALSLSQDELETLKNEIDAKVRASDLNAYIKAPSLNGASAKGVPILIKDNISVKGWEITCSSKILEGYVAPYHASVMENLHQNSMAGFGLSNMDEFAMGSTTESSCYGITKNPRDKNRVPGGSSGGSAAAVAGGLAVAALGSDTGGSIRQPASYCGCVGLKPTYGRVSRYGLIAYCSSFDQIGPITQNVEDASILFDAISGYDSKDSTSANLKPTQTFKNLNRDKRFKIAVLMDHIKDASNEVQLAYENTLKALKEMGHEIVEKKMLDSHYQISIYYIISMAEASSNLARFDGVRYGRRAQNIKDLKELYLKSRSEGFGDEVKRRIMLGNFVLSSGYYDAYYLKAQQMRLIIKEQYNKIFEEVDLIFTPVAPTSAHLFNYHASPLEMYLSDIYTIGANLSGLPALSLPVAKDPLGLPIGMQFIAKAFDEQSLLDVSYALEQELDLKLD,failed
17,MITRTIRGILKGAAVFLGLAGAIALLHAFGLDSTLDTAWIDSHIRDHGLQGHLLYIGIAGVLTALAVPRQFVSFLGGYAFGAAFGTLWATVGATLGCMLTFFYARFAGQSLVNRRFSHRVARVNAFLSRNPFTMTFIIRCLPVGNNVLTNLIAGVSSIPAVQFFAGSFIGYIPQHFIFALLGSGVHVSPVLRTVTSALLFVLSSVFGYMLYRRYRIDRDLEEPDDQ,failed
18,MITTRTARQCGQADYGWLQARYTFSFGHYFDPKLLGYASLRVLNQEVLAPGAAFQPRTYPKVDILNVILDGEAEYRDSEGNHVQASAGEALLLSTQPGVSYSEHNLSKDKPLTRMQLWLDACPQRENPLIQKLALNMGKQQLIASPEGAMGSLQLRQQVWLHHIVLDKGESANFQLHGPRAYLQSIHGKFHALTHHEEKAALTCGDGAFIRDEANITLVADSPLRALLIDLPV,not failed
19,MITVVIASRLREDRLDYLTAMHASLTRQSVPWEAVIALDGASPDRLPRQLAQDPRVDTLVLPRPVGAACARNLALTQVRTRYVNWADDDDEFTDDAMSVRLETLESTGVGWCAGWSEDQFRDGSTRLWRCPTPPGRHEAGDVWTFWKSPADTIPIGPTTILARTDLVRAAPMGGLVQGEDYCAALGVTALAPGILLPLPVYRYRKWGGQMTAQDGYDQLETAAREHAWAYGRSLRAVLRGGEDLVHVLEHHHHHH,failed
